# Reference: the RNAGym collection of RNA variant scans (doi:10.1073/pnas.2313332121)
# Variants at the floor of the assay were thinned out.
# B1: TPR 5TU (parent)
# chain: GGAUCUUCUCGAUCUAACAAAAAAGACAAAUCUGCCACAAAGCUUGAGAGCAUCUUCGGAUGCAGAGGCGGCAGCCUUCGGUGGCGCGAUAGCGCCAACGUUCUCAACUAUGACACGCAAAACGCGUGCUCCGUUGAAUGGAGUUUAUCAUG
# Variants of: B1
# Test: polymerase ribozyme fitness, log enrichment relative to wild type (log ratio); higher = more active; in vitro selection for triplet polymerase activity
# In short: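 In triplicate, a single round of in vitro selection was run on each mutant library, PCR-built and transcribed, covering one subunit of a heterodimeric triplet polymerase ribozyme. Frozen incubation at −7 °C followed annealing with a biotinylated primer, partner subunit and triplets, and extended constructs were then gel-excised, streptavidin-captured and taken through RT-PCR. Fitness is the logarithm of genotype enrichment over wild-type enrichment, from inverse-variance-weighted replicate averages of Illumina-sequenced inputs and outputs. […] only genotypes with ≥10 input reads and ≥1 read per output were kept.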
row,Variant,polymerase ribozyme fitness (log ratio)
1,A39G C75U C85U A137G,-3.67
2,A39G G42A C87G,≤ -4.2
3,A39U U55G U82C C85U U146C,-2.49
4,A40C U44A G59A C93A U109A,≤ -4.2
5,A40C U56A G128C,-3.92
6,A40C C131G,-3.13
7,A39U A91C G141C U148G,≤ -4.2
8,A40C G42U U55A C85A,≤ -4.2
9,A39G U55A C96A A97U,-3.27
10,A40C G48A G58A C87U,-2.55
11,A40C U148A,-3.51
12,A39U G84C,-3.33
13,A40C C85U C95U A98G G126U,-1.37
14,A39U C43U U111G,≤ -4.2
15,A39C G88C A97G C114G,≤ -4.2
16,A40G A41G U53G C85A U127G C131U G143A,≤ -4.2
17,A39G A52C C54G C85U C125U G126U A147C,≤ -4.2
18,A40C C76U C93G G152A,≤ -4.2
19,A39U U139A,-3.87
20,A39U A73U,-4.11
21,A39U C85G C96A A107G,≤ -4.2

row,Variant,polymerase ribozyme fitness (log ratio)
1,A39U G92C U127A,≤ -4.2
2,A39U U56A C93U,-3.55
3,A40C A60G U139C U144C,-3.63
4,A40C G140U,-3.39
5,A40C A122G,0.759
6,A39U G80C A91U,≤ -4.2
7,A40C A41C G59A G70U G84A C85A C105G G141C G143U,≤ -4.2
8,A40G C63G C85U U145A,-2.16
9,A39G C63G G70C C87U A91G C99A A120G,≤ -4.2
10,A40C A52G U82A G92U A106U,-3.38
11,A40C U55A U104C,-0.475
12,A39C U82G G83C G133C,≤ -4.2
13,A40G G58C C79G C87U G136U,≤ -4.2
14,A40C C57A U139C,-3.43
15,A39G G42A G48C A49C G83U C87G C96A A107U,≤ -4.2
16,A39C G143U,-4.15
17,A39U C76A G86C G126A C132U U134A,≤ -4.2
18,A39C G92U C95A G112A U145G,≤ -4.2
19,A39G G141C,-2.65
20,A39G U101C,-1.89
21,A39G A60C G67U C99G G143C,≤ -4.2

row,Variant,polymerase ribozyme fitness (log ratio)
1,A40G C116G A120U,-1.72
2,A40G A41G G67C A120C,≤ -4.2
3,A40G A41U A49U G58C G74U C85A U139G G141C U148C,≤ -4.2
4,A40G C75G,-4.09
5,A40C C85A G92U A119C A147C,≤ -4.2
6,A39G G48A C51U U56C G59U A150C,≤ -4.2
7,A39U A52U C76G G83A,≤ -4.2
8,A39G C87U A89G G126A C132U,≤ -4.2
9,A39U G81A C99U U104C G117A,-3.48
10,A40G A64C G70A C114U,≤ -4.2
11,A40G C87U,-1.53
12,A39G G58U U82C C108A U146A A150C,≤ -4.2
13,A40G G42U G74C,≤ -4.2
14,A40C G48C U56G,-1.94
15,A39U C51G U55G U61G C85U C99U,≤ -4.2
16,A40C C54U G141U,0.7
17,A39U U53A A91G A97G U111G,-4.05
18,A40G A60C U61A G81C U90G G94A C123A U139A,≤ -4.2
19,A39C U53A G62C U144A,≤ -4.2
20,A39U C79G G84U,≤ -4.2
21,A40G C69G G70U G83A A150U,≤ -4.2

row,Variant,polymerase ribozyme fitness (log ratio)
1,A40G C87U C103G,≤ -4.2
2,A40G A49U A60C C76A C96U U134G,≤ -4.2
3,A40C C76G U151A,≤ -4.2
4,A40C A52C G83A,-2.55
5,A39U A47G C95U A110G,-3.7
6,A39C U45A G48U C57G G70A G83C C96U A115G G141A,≤ -4.2
7,A39U G100A A110G A150U,≤ -4.2
8,A40G A73U A89G C93G U104G A106G U134A,≤ -4.2
9,A39U C51U C54U A60G U82G A98C,-3.88
10,A39G G80C C93U C118U,-3.96
11,A39C U130G,≤ -4.2
12,A40C U44G U53A C87G A107U A121U G124C U130A G143A,≤ -4.2
13,A40C G50U U148A,≤ -4.2
14,A39U G58C G88A,≤ -4.2
15,A39C G81C C85U C116A G141C,≤ -4.2
16,A39G G48A C54A G88A C125U U134G U145C,≤ -4.2
17,A40G A52U A91C C108U G143C U148A,≤ -4.2
18,A40G G48U G58U C76A,≤ -4.2
19,A39G C99A,-3.78
20,A39U C69U C95U C129G,≤ -4.2
